Results taken from patent publication US20060052582A1, “Identification of inhibitors of mitosis” (priority 2002, published 2006).

System: Nek6
Assay: Activity and phosphorylation of GST Nek6 coexpressed with Nercc1 noncatalytic fragment in HEK293 cells
Format: cell-based, human
Procedure: GST Nek6 was coexpressed with increasing quantities of FLAG Nercc1 (347-979). The kinase activity of GST Nek6 was measured using MBP as substrate.
GST Nek6 was cotransfected in HEK293 cells with increasing amounts of FLAG Nercc1 (347-979), and immunoblots of the extracts were carried out using the indicated antibodies.

Sequence of Nek6 (Q9HC98 whole entry, the tested form may be a part): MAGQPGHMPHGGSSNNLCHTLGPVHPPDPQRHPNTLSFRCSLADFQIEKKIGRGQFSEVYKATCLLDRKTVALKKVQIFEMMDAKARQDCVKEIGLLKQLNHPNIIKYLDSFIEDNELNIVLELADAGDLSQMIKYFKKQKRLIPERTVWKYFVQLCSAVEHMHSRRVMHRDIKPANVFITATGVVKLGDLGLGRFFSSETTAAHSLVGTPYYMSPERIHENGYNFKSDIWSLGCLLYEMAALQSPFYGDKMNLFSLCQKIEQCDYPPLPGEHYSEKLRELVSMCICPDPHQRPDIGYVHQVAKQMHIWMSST

B1: FLAG Nercc1 (347-979): FLAG-tagged polypeptide consisting of Nercc1 amino acids 347-979 of SEQ ID NO:2 (protein, listed as Homo sapiens)
chain: SEVYIWGGGKSTPQKLDVIKSGCSARQVCAGNTHFAVVTVEKELYTWVNMQGGTKLHGQLGHGDKASYRQPKHVEKLQGKAIHQVSCGDDFTVCVTDEGQLYAFGSDYYGCMGVDKVAGPEVLEPMQLNFFLSNPVEQVSCGDNHVVVLTRNKEVYSWGCGEYGRLGLDSEEDYYTPQKVDVPKALIIVAVQCGCDGTFLLTQSGKVLACGLNEFNKLGLNQCMSGIINHEAYHEVPYTTSFTLAKQLSFYKIRTIAPGKTHTAAIDERGRLLTFGCNKCGQLGVGNYKKRLGINLLGGPLGGKQVIRVSCGDEFTIAATDDNHIFAWGNGGNGRLAMTPTERPHGSDICTSWPRPIFGSLHHVPDLSCRGWHTILIVEKVLNSKTIRSNSSGLSIGTVFQSSSPGGGGGGGGGEEEDSQQESETPDPSGGFRGTMEADRGMEGLISPTEAMGNSNGASSSCPGWLRKELENAEFIPMPDSPSPLSAAFSESEKDTLPYEELQGLKVASEAPLEHKPQVEASSPRLNPAVTCAGKGTPLTPPACACSSLQVEVERLQGLVLKCLAEQQKLQQENLQIFTQLQKLNKKLEGGQQVGMHSKGTQTAKEEMEMDPKPDLDSDSGCLLGTDSCRPSL
modifications: FLAG tag
- effect on Nek6 activation loop phosphorylation (cotransfected in HEK293 cells): suppresses
- effect on kinase activity of coexpressed GST Nek6 (overexpression in vivo, MBP as substrate): inhibited
